Test system: Escherichia coli TOP10
Test: shrunken log2 fold change of peptide-encoding DNA abundance (4.5 h post-induction vs induction); higher = less antimicrobial activity (less host growth inhibition)
Details: time post-induction: 4.5 h; library: site-saturation at positions 5, 18, 19, 20
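Also: peptides expressed intracellularly from a pBAD plasmid library in pooled LB shake-flask culture, induced with 0.3% L-arabinose, DNA abundance read by NGS, three biological replicates, DESeq2 with apeglm shrinkage.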

Row | Sequence | shrunken log2 fold change
1 | RRIRFRPPRLPRPRPRPAMTPRP | 0.00388
2 | RRIRARPPRLPRPRPRPWGNPRP | 0.00277
3 | RRIRCRPPRLPRPRPRPDTLPRP | -0.96
4 | RRIRLRPPRLPRPRPRPLSTPRP | -0.471
5 | RRIRVRPPRLPRPRPRPAVAPRP | 0.266
6 | RRIRLRPPRLPRPRPRPTFRPRP | 0.0593
7 | RRIRDRPPRLPRPRPRPETNPRP | 0.443
8 | RRIRARPPRLPRPRPRPPHWPRP | 1.08
9 | RRIRNRPPRLPRPRPRPPHRPRP | 0.00305
10 | RRIRMRPPRLPRPRPRPMTSPRP | 0.157
11 | RRIRIRPPRLPRPRPRPFDIPRP | -1.02
12 | RRIRRRPPRLPRPRPRPYTTPRP | -0.354
13 | RRIRDRPPRLPRPRPRPINPPRP | -0.277
14 | RRIRDRPPRLPRPRPRPGDQPRP | 0.282
15 | RRIRWRPPRLPRPRPRPCYWPRP | -0.201
16 | RRIRWRPPRLPRPRPRPAWYPRP | 0.0415
17 | RRIRSRPPRLPRPRPRPPMHPRP | 0.25
18 | RRIRFRPPRLPRPRPRPTVRPRP | 0.0843
19 | RRIRPRPPRLPRPRPRPDTHPRP | -0.119
20 | RRIRRRPPRLPRPRPRPSLSPRP | 2.85
21 | RRIRLRPPRLPRPRPRPATNPRP | -0.253
22 | RRIRTRPPRLPRPRPRPTNEPRP | -0.261
23 | RRIRFRPPRLPRPRPRPKYNPRP | -0.978
24 | RRIRDRPPRLPRPRPRPRYLPRP | -0.171
25 | RRIRHRPPRLPRPRPRPCAKPRP | -0.251

Row | Sequence | shrunken log2 fold change
26 | RRIRHRPPRLPRPRPRPWPVPRP | 0.155
27 | RRIRQRPPRLPRPRPRPVPFPRP | -0.374
28 | RRIRCRPPRLPRPRPRPMDRPRP | -0.0115
29 | RRIRTRPPRLPRPRPRPSYDPRP | -0.495
30 | RRIRNRPPRLPRPRPRPQQIPRP | -0.23
31 | RRIRERPPRLPRPRPRPHDCPRP | -0.715
32 | RRIRTRPPRLPRPRPRPEWAPRP | 0.213
33 | RRIRSRPPRLPRPRPRPHFVPRP | -0.0872
34 | RRIRFRPPRLPRPRPRPEMIPRP | 0.169
35 | RRIRMRPPRLPRPRPRPNRDPRP | 0.00277
36 | RRIRYRPPRLPRPRPRPSNLPRP | -0.729
37 | RRIRERPPRLPRPRPRPTPLPRP | 0.0281
38 | RRIRYRPPRLPRPRPRPYHYPRP | -0.556
39 | RRIRKRPPRLPRPRPRPVFLPRP | -0.0387
40 | RRIRVRPPRLPRPRPRPWYHPRP | -0.209
41 | RRIRLRPPRLPRPRPRPMIKPRP | 0.0349
42 | RRIRDRPPRLPRPRPRPWHLPRP | -0.231
43 | RRIRQRPPRLPRPRPRPSISPRP | -0.22
44 | RRIRQRPPRLPRPRPRPSNVPRP | -0.0428
45 | RRIRPRPPRLPRPRPRPQPMPRP | 0.225
46 | RRIRWRPPRLPRPRPRPVVYPRP | -0.228
47 | RRIRPRPPRLPRPRPRPYYVPRP | -1.25
48 | RRIRSRPPRLPRPRPRPLTGPRP | 0.043
49 | RRIRSRPPRLPRPRPRPVTVPRP | -0.057
50 | RRIRCRPPRLPRPRPRPREHPRP | 0.161

Row | Sequence | shrunken log2 fold change
51 | RRIRFRPPRLPRPRPRPNFRPRP | 0.157
52 | RRIRCRPPRLPRPRPRPHCWPRP | -0.0254
53 | RRIRNRPPRLPRPRPRPAKWPRP | 0.112
54 | RRIRHRPPRLPRPRPRPQRAPRP | 0.205
55 | RRIRCRPPRLPRPRPRPLSDPRP | 0.0896
56 | RRIRSRPPRLPRPRPRPPPYPRP | 0.337
57 | RRIRARPPRLPRPRPRPLHVPRP | 0.0439
58 | RRIRPRPPRLPRPRPRPRGHPRP | 0.0129
59 | RRIRRRPPRLPRPRPRPPMCPRP | 0.622
60 | RRIRWRPPRLPRPRPRPPHVPRP | 0.444
61 | RRIRGRPPRLPRPRPRPSAAPRP | 2.09
62 | RRIRLRPPRLPRPRPRPTKYPRP | -0.47
63 | RRIRRRPPRLPRPRPRPIAVPRP | -0.0851
64 | RRIRCRPPRLPRPRPRPRRAPRP | 0.64
65 | RRIRERPPRLPRPRPRPKQEPRP | -0.127
66 | RRIRGRPPRLPRPRPRPWLEPRP | 0.303
67 | RRIRMRPPRLPRPRPRPPTGPRP | 0.858
68 | RRIRCRPPRLPRPRPRPRILPRP | -0.567
69 | RRIRMRPPRLPRPRPRPWGQPRP | -0.0394
70 | RRIRWRPPRLPRPRPRPPNAPRP | 0.675
71 | RRIRMRPPRLPRPRPRPHEGPRP | 0.443
72 | RRIRSRPPRLPRPRPRPNDGPRP | -0.0933
73 | RRIRRRPPRLPRPRPRPSENPRP | -0.0437
74 | RRIRLRPPRLPRPRPRPCEIPRP | 0.0237
75 | RRIRLRPPRLPRPRPRPRCMPRP | -0.0665

Row | Sequence | shrunken log2 fold change
76 | RRIRMRPPRLPRPRPRPKTRPRP | 0.994
77 | RRIRTRPPRLPRPRPRPLGLPRP | 0.207
78 | RRIRRRPPRLPRPRPRPYNLPRP | -0.233
79 | RRIRNRPPRLPRPRPRPGLPPRP | 0.028
80 | RRIRLRPPRLPRPRPRPDTNPRP | -0.103
81 | RRIRIRPPRLPRPRPRPWYTPRP | -0.122
82 | RRIRCRPPRLPRPRPRPPGMPRP | 0.326
83 | RRIRARPPRLPRPRPRPGQDPRP | 0.15
84 | RRIRIRPPRLPRPRPRPGCIPRP | -0.523
85 | RRIRTRPPRLPRPRPRPSCDPRP | -0.347
86 | RRIRTRPPRLPRPRPRPHNIPRP | -0.455
87 | RRIRTRPPRLPRPRPRPNKTPRP | -0.0171
88 | RRIRTRPPRLPRPRPRPHAFPRP | -0.128
89 | RRIRFRPPRLPRPRPRPLDDPRP | -0.209
90 | RRIRFRPPRLPRPRPRPPYDPRP | -0.49
91 | RRIRVRPPRLPRPRPRPAPQPRP | 0.618
92 | RRIRSRPPRLPRPRPRPPSYPRP | -0.555
93 | RRIRSRPPRLPRPRPRPCVTPRP | 0.0116
94 | RRIRLRPPRLPRPRPRPVIAPRP | -0.176
95 | RRIRRRPPRLPRPRPRPDSWPRP | 0.115
96 | RRIRGRPPRLPRPRPRPYKNPRP | -0.22
97 | RRIRFRPPRLPRPRPRPTMGPRP | 0.0497
98 | RRIRYRPPRLPRPRPRPMYVPRP | -0.0549
99 | RRIRDRPPRLPRPRPRPWMHPRP | 0.00346
100 | RRIRRRPPRLPRPRPRPHLWPRP | 0.25

Row | Sequence | shrunken log2 fold change
101 | RRIRYRPPRLPRPRPRPNCDPRP | -0.504
102 | RRIRWRPPRLPRPRPRPWRRPRP | 0.117
103 | RRIRMRPPRLPRPRPRPALWPRP | 0.858
104 | RRIRYRPPRLPRPRPRPYKVPRP | -0.0075
105 | RRIRYRPPRLPRPRPRPGMGPRP | -0.195
106 | RRIRLRPPRLPRPRPRPHRKPRP | -0.295
107 | RRIRWRPPRLPRPRPRPKSAPRP | 0.606
108 | RRIRKRPPRLPRPRPRPEVLPRP | 1.57
109 | RRIRIRPPRLPRPRPRPPARPRP | 0.393
110 | RRIRCRPPRLPRPRPRPNPDPRP | -0.306
111 | RRIRLRPPRLPRPRPRPKMPPRP | -0.0152
112 | RRIRSRPPRLPRPRPRPNVLPRP | 0.105
113 | RRIRCRPPRLPRPRPRPCEEPRP | 0.207
114 | RRIRWRPPRLPRPRPRPITQPRP | -0.0367
115 | RRIRCRPPRLPRPRPRPDEYPRP | -0.231
116 | RRIRCRPPRLPRPRPRPQDKPRP | -0.579
117 | RRIRQRPPRLPRPRPRPSQFPRP | 0.00374
118 | RRIRARPPRLPRPRPRPSSHPRP | -0.471
119 | RRIRKRPPRLPRPRPRPIFLPRP | 0.0688
120 | RRIRHRPPRLPRPRPRPLRFPRP | -0.172
121 | RRIRCRPPRLPRPRPRPRLYPRP | -0.307
122 | RRIRVRPPRLPRPRPRPSTCPRP | -0.325
123 | RRIRKRPPRLPRPRPRPVTEPRP | 0.42
124 | RRIRFRPPRLPRPRPRPTSEPRP | 0.0114
125 | RRIRRRPPRLPRPRPRPWLVPRP | -0.0986

Reference: the supplement of paper PMC9112550, “Optimization of the antimicrobial peptide Bac7 by deep mutational scanning” (BMC Biology, 2022)
